Experimental data reported in patent US20210355194A1 (published 2021).
Substitutions are numbered along the chain they refer to. Where two headings read alike, the source gives them in different places.

B1: 10-20 (antibody, V domains shown)
VH: EVQLVESGGGLVQPGGSLRLSCAASGRTIRTMGWFRQAPGKEREFVATINSRGITNYADSVKGRFTISADNSKNTAYLQMNSLKPEDTAVYYCTTERDGLLWFRELFRPSWGQGTLVTVSS
B2: 3-7 (antibody, V domains shown)
VH: EVQLLESGGGLVQPGGSLRLSCAASGFMFGNYAMSWVRQAPGKGLEWVAAISGSGGSTYYADSVKGRFTISRDNSKNTLYLQMNSLRAEDTAVYYCAKDRGYSSSWYGGFDYWGQGTLVTVSS
VL: DIQMTQSPSSLSASVGDRVTITCRASQSIGRYLNWYQQKPGKAPKLLIYASSSLQSGVPSRFSGSGSGTDFTLTISSLQPEDFATYYCQQSYSLPRTFGQGTKVEIK
B3: 2-9 (antibody, V domains shown)
VH: EVQLLESGGGLVQPGGSLRLSCAASGFTFPRYAMSWVRQAPGKGLEWVSTISGSGSTTYYADSVKGRFTISRDNSKNTLYLQMNSLRAEDTAVYYCARLIDAFDIWGQGTLVTVSS
VL: B2 VL with S28R, R31T, S51A, S53N, Q55E, S56G, S91N, L94T, P95T, R96W
B4: 10-28 (antibody, V domains shown)
VH: EVQLVESGGGLVQPGGSLRLSCAASGSIFSIGMGWFRQAPGKEREFVARIWWRSGATYYADSVKGRFTISADNSKNTAYLQMNSLKPEDTAVYYCAAISIFGRLKWGQGTLVTVSS
B5: 2-2 (antibody, V domains shown)
VH: EVQLLESGGGLVQPGGSLRLSCAASGFTFSRHAMNWVRQAPGKGLEWVSGISGSGDETYYADSVKGRFTISRDNSKNTLYLQMNSLRAEDTAVYYCARDLPASYYDSSGYYWHNGMDVWGQGTLVTVSS
VL: DIQMTQSPSSLSASVGDRVTITCRASQTINTYLNWYQQKPGKAPKLLIYSASTLQSGVPSRFSGSGSGTDFTLTISSLQPEDFATYYCQQSYSTFTFGQGTKVEIK
B6: 2-6 (antibody, V domains shown)
VH: EVQLLESGGGLVQPGGSLRLSCAASGFTFSNYPMNWVRQAPGKGLEWVSTISGSGGNTFYADSVKGRFTISRDNSKNTLYLQMNSLRAEDTAVYYCVRHDEYSFDYWGQGTLVTVSS
VL: DIQMTQSPSSLSASVGDRVTITCRASQSIDTYLNWYQQKPGKAPKLLIYAASALASGVPSRFSGSGSGTDFTLTISSLQPEDFATYYCQQSYSAPPYTFGQGTKVEIK
B7: 2-5 (antibody, V domains shown)
VH: EVQLLESGGGLVQPGGSLRLSCAASGFTFSDFAMAWVRQAPGKGLEWVSAISGSGDITYYADSVKGRFTISRDNSKNTLYLQMNSLRAEDTAVYYCAREADGLHSPWHFDLWGQGTLVTVSS
VL: B6 VL with D30H
B8: 9-11 (antibody, V domains shown)
VH: EVQLVESGGGLVQPGGSLRLSCAASGRTFGRRAMGWFRQAPGKEREFVAGISRGGGTNYADSVKGRFTISADNSKNTAYLQMNSLKPEDTAVYYCAAKGIWDYLGRRDFGDWGQGTLVTVSS
B9: ACE2 variant antibody 4-49 (VHH)
VHH: EVQLVESGGGLVQPGGSLRLSCAASGRTFGDYIMGWFRQAPGKERESVAAINWSAGYTAYADSVKGRFTISADNSKNTAYLQMNSLKPEDTAVYYCARASPNTGWHFDHWGQGTLVTVSS
B10: 10-27 (antibody, V domains shown)
VH: EVQLVESGGGLVQPGGSLRLSCAASGRTFRRYSMGWFRQAPGKEREFVASITPGGNTNYADSVKGRFTISADNSKNTAYLQMNSLKPEDTAVYYCASRRRWLTPYIFWGQGTLVTVSS

Tests used:
[1] = target: T1, SARS-CoV-2 membrane protein (SARS-CoV-2, UniProt P0DTC5 1-222); test: SPR
[2] = target: human ACE2 (human, UniProt Q9BYF1 18-740); test: SPR
[3] = target: SARS-CoV-2 S1 RBD (SARS-CoV-2, UniProt P0DTC2 319-537); test: competition
[4] = target: T1, SARS-CoV-2 membrane protein; test: SPR; remark: listed apart in the source
[5] = target: T1, SARS-CoV-2 membrane protein; test: SPR; remark: listed apart in the source
[6] = target: T2, SARS-CoV-2 S protein trimer (SARS-CoV-2, UniProt P0DTC2 14-1208); test: SPR
[7] = target: T3, SARS-CoV-2 S1 protein (SARS-CoV-2, UniProt P0DTC2 16-685); test: SPR
[8] = target: T2, SARS-CoV-2 S protein trimer; test: SPR; remark: listed apart in the source
[9] = target: T3, SARS-CoV-2 S1 protein; test: SPR; remark: listed apart in the source
[10] = target: ACE2 (human, UniProt Q9BYF1 18-740); test: SPR
Sequence of ACE2 (Q9BYF1 18-740): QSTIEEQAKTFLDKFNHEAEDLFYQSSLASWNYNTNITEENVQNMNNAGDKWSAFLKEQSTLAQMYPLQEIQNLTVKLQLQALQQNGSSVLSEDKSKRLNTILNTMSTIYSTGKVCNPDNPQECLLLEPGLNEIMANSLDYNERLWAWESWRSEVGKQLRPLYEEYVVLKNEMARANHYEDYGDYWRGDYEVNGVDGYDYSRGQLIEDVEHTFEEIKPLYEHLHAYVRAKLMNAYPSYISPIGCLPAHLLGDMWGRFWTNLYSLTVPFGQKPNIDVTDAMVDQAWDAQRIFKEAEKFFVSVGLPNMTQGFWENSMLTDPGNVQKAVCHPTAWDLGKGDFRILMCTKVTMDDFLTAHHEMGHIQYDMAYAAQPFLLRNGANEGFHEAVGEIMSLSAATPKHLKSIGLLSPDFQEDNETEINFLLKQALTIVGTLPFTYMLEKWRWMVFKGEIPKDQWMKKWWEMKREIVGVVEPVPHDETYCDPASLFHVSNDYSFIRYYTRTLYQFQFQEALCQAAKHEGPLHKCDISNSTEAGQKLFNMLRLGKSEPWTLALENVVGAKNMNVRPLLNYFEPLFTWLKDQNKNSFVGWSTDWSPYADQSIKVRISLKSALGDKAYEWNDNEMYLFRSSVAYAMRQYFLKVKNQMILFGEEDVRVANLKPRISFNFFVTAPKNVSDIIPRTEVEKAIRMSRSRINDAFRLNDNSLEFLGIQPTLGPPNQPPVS

Sequence of human ACE2 (Q9BYF1 18-740): as above

Row | Binder | IC50 [3] | Kd [5] | Kd [6] | Kd [7] | other results
1 | B1 | – | – | – | – | Kd [1]: 66 nM
2 | B2 | – | – | – | – | Kd [2]: 0.326 nM
3 | B3 | 4.69 nM | – | – | – | –
4 | B4 | – | 5.6 nM | – | – | Kd [4]: 5.6 nM
5 | B5 | 1.26 nM | – | 0.143 nM | 74 nM | –
6 | B6 | 0.754 nM | – | 0.036 nM | 7.2 nM | Kd [8]: < 0.036 nM; Kd [9]: 7.2 nM
7 | B7 | 3.83 nM | – | 1.7 nM | 0.223 nM | –
8 | B8 | – | 0.593 nM | – | – | –
9 | B9 | – | – | – | – | Kd [10]: 2.3 nM
10 | B10 | – | 5.7 nM | – | – | –
